In IntAct's records for PubMed 12692135:

B1: Tumor protein 63 (Homo sapiens), Q9H3D4 (parent)
chain: MNFETSRCATLQYCPDPYIQRFVETPAHFSWKESYYRSTMSQSTQTNEFLSPEVFQHIWDFLEQPICSVQPIDLNFVDEPSEDGATNKIEISMDCIRMQDSDLSDPMWPQYTNLGLLNSMDQQIQNGSSSTSPYNTDHAQNSVTAPSPYAQPSSTFDALSPSPAIPSNTDYPGPHSFDVSFQQSSTAKSATWTYSTELKKLYCQIAKTCPIQIKVMTPPPQGAVIRAMPVYKKAEHVTEVVKRCPNHELSREFNEGQIAPPSHLIRVEGNSHAQYVEDPITGRQSVLVPYEPPQVGTEFTTVLYNFMCNSSCVGGMNRRPILIIVTLETRDGQVLGRRCFEARICACPGRDRKADEDSIRKQQVSDSTKNGDGTKRPFRQNTHGIQMTSIKKRRSPDDELLYLPVRGRETYEMLLKIKESLELMQYLPQHTIETYRQQQQQQHQHLLQKQTSIQSPSSYGNSSPPLNKMNSMNKLPSVSQLINPQQRNALTPTTIPDGMGANIPMMGTHMPMAGDMNGLSPTQALPPPLSMPSTSHCTPPPPYPTDCSIVSFLARLGCSSCLDYFTTQGLTTIYQIEHYSMDDLASLKIPEQFRHAIWKGILDHRQLHEFSSPSHLLRTPSSASTVSVGSSETRGERVIDAVRFTLRQTISFPPRDEWNDFNFDMDARRNKQQRIKEEGE
partner: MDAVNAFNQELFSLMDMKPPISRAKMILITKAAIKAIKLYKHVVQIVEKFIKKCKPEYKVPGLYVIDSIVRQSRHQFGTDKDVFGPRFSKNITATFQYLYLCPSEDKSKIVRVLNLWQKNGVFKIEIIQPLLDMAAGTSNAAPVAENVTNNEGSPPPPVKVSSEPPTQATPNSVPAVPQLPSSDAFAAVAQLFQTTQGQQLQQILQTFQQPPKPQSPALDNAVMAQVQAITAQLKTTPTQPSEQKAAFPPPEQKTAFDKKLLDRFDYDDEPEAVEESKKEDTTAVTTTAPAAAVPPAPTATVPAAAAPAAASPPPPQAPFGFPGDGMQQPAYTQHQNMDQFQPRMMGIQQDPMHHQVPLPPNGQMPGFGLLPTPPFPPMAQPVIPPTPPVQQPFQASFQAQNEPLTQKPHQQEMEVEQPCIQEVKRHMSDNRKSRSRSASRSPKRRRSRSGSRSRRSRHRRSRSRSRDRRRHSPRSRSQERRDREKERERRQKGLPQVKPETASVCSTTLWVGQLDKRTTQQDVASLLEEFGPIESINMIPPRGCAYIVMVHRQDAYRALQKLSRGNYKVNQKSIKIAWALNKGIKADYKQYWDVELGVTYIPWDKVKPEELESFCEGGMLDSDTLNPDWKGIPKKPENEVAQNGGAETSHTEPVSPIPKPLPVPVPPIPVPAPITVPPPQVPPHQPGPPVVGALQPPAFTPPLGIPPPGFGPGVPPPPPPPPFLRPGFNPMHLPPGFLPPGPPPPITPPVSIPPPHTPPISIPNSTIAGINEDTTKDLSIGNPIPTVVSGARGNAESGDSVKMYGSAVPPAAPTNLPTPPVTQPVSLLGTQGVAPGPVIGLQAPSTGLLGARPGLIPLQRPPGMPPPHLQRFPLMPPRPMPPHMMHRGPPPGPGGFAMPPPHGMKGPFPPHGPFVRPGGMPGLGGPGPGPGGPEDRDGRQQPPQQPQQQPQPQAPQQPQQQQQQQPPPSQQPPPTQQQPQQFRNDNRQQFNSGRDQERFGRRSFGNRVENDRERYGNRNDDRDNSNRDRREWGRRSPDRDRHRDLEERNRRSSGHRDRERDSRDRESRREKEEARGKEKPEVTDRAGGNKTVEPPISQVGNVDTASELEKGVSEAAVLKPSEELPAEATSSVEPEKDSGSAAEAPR
B2: Tumor protein 63 (Homo sapiens), Q9H3D4-2 (parent)
chain: MLYLENNAQTQFSEPQYTNLGLLNSMDQQIQNGSSSTSPYNTDHAQNSVTAPSPYAQPSSTFDALSPSPAIPSNTDYPGPHSFDVSFQQSSTAKSATWTYSTELKKLYCQIAKTCPIQIKVMTPPPQGAVIRAMPVYKKAEHVTEVVKRCPNHELSREFNEGQIAPPSHLIRVEGNSHAQYVEDPITGRQSVLVPYEPPQVGTEFTTVLYNFMCNSSCVGGMNRRPILIIVTLETRDGQVLGRRCFEARICACPGRDRKADEDSIRKQQVSDSTKNGDGTKRPFRQNTHGIQMTSIKKRRSPDDELLYLPVRGRETYEMLLKIKESLELMQYLPQHTIETYRQQQQQQHQHLLQKQTSIQSPSSYGNSSPPLNKMNSMNKLPSVSQLINPQQRNALTPTTIPDGMGANIPMMGTHMPMAGDMNGLSPTQALPPPLSMPSTSHCTPPPPYPTDCSIVSFLARLGCSSCLDYFTTQGLTTIYQIEHYSMDDLASLKIPEQFRHAIWKGILDHRQLHEFSSPSHLLRTPSSASTVSVGSSETRGERVIDAVRFTLRQTISFPPRDEWNDFNFDMDARRNKQQRIKEEGE
B3: Tumor protein 63 (Homo sapiens), Q9H3D4 (parent)
chain: B1 chain

Variants of: B1
Conditions: with scaf4_human SCAF4, O95104

| effect of a mutation on the interaction | Variant |
| --- | --- |
| disrupting interaction strength | L553F |

Variants of: B2
Conditions: with roaa_human HNRNPAB
Target sequence in this assay (Q99729 whole entry): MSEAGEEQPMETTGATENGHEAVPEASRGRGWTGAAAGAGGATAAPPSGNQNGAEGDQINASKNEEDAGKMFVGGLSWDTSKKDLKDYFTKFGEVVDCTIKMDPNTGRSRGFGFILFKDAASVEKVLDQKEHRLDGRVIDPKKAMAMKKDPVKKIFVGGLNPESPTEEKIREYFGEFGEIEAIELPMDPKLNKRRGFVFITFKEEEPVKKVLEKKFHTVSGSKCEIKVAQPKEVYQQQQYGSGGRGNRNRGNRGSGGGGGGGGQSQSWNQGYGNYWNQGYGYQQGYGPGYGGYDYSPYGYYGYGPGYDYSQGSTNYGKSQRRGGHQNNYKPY

| effect of a mutation on the interaction | Variant |
| --- | --- |
| disrupting interaction strength | MLYLENNAQTQFSEPQYTNLGLLNSMDQQIQNGSSSTSPYNTDHAQNSVTAPSPYAQPSSTFDALSPSPAIPSNTDYPGPHSFDVSFQQSSTAKSATWTYSTELKKLYCQIAKTCPIQIKVMTPPPQGAVIRAMPVYKKAEHVTEVVKRCPNHELSREFNEGQIAPPSHLIRVEGNSHAQYVEDPITGRQSVLVPYEPPQVGTEFTTVLYNFMCNSSCVGGMNRRPILIIVTLETRDGQVLGRRCFEARICACPGRDRKADEDSIRKQQVSDSTKNGDGTKRPFRQNTHGIQMTSIKKRRSPDDELLYLPVRGRETYEMLLKIKESLELMQYLPQHTIETYRQQQQQQHQHLLQKQTSIQSPSSYGNSSPPLNKMNSMNKLPSVSQLINPQQRNALTPTTIPDGMGANIPMMGTHMPMAGDMNGLSPTQALPPPLSMPSTSHCTPPPPYPTDCSIVSFLARLGCSSVLDYFTTQGLTTIYQIEHYSMDDLASLKIPEQFRHAIWKGILDHRQLHEFSSPSHLLRTPSSASTVSVGSSETRGERVIDAVRFTLRQTISFPPRDEWNDFNFDMDARRNKQQRIKEEGE [C467V] |
| disrupting interaction strength | MLYLENNAQTQFSEPQYTNLGLLNSMDQQIQNGSSSTSPYNTDHAQNSVTAPSPYAQPSSTFDALSPSPAIPSNTDYPGPHSFDVSFQQSSTAKSATWTYSTELKKLYCQIAKTCPIQIKVMTPPPQGAVIRAMPVYKKAEHVTEVVKRCPNHELSREFNEGQIAPPSHLIRVEGNSHAQYVEDPITGRQSVLVPYEPPQVGTEFTTVLYNFMCNSSCVGGMNRRPILIIVTLETRDGQVLGRRCFEARICACPGRDRKADEDSIRKQQVSDSTKNGDGTKRPFRQNTHGIQMTSIKKRRSPDDELLYLPVRGRETYEMLLKIKESLELMQYLPQHTIETYRQQQQQQHQHLLQKQTSIQSPSSYGNSSPPLNKMNSMNKLPSVSQLINPQQRNALTPTTIPDGMGANIPMMGTHMPMAGDMNGLSPTQALPPPLSMPSTSHCTPPPPYPTDCSIVSFLARLGCSSCLDYFTTQVLTTIYQIEHYSMDDLASLKIPEQFRHAIWKGILDHRQLHEFSSPSHLLRTPSSASTVSVGSSETRGERVIDAVRFTLRQTISFPPRDEWNDFNFDMDARRNKQQRIKEEGE [G475V] |
| disrupting interaction strength | MLYLENNAQTQFSEPQYTNLGLLNSMDQQIQNGSSSTSPYNTDHAQNSVTAPSPYAQPSSTFDALSPSPAIPSNTDYPGPHSFDVSFQQSSTAKSATWTYSTELKKLYCQIAKTCPIQIKVMTPPPQGAVIRAMPVYKKAEHVTEVVKRCPNHELSREFNEGQIAPPSHLIRVEGNSHAQYVEDPITGRQSVLVPYEPPQVGTEFTTVLYNFMCNSSCVGGMNRRPILIIVTLETRDGQVLGRRCFEARICACPGRDRKADEDSIRKQQVSDSTKNGDGTKRPFRQNTHGIQMTSIKKRRSPDDELLYLPVRGRETYEMLLKIKESLELMQYLPQHTIETYRQQQQQQHQHLLQKQTSIQSPSSYGNSSPPLNKMNSMNKLPSVSQLINPQQRNALTPTTIPDGMGANIPMMGTHMPMAGDMNGLSPTQALPPPLSMPSTSHCTPPPPYPTDCSIVSFLARLGCSSCLDYFTTQGLTTIYQTEHYSMDDLASLKIPEQFRHAIWKGILDHRQLHEFSSPSHLLRTPSSASTVSVGSSETRGERVIDAVRFTLRQTISFPPRDEWNDFNFDMDARRNKQQRIKEEGE [I482T] |
| disrupting interaction strength | MLYLENNAQTQFSEPQYTNLGLLNSMDQQIQNGSSSTSPYNTDHAQNSVTAPSPYAQPSSTFDALSPSPAIPSNTDYPGPHSFDVSFQQSSTAKSATWTYSTELKKLYCQIAKTCPIQIKVMTPPPQGAVIRAMPVYKKAEHVTEVVKRCPNHELSREFNEGQIAPPSHLIRVEGNSHAQYVEDPITGRQSVLVPYEPPQVGTEFTTVLYNFMCNSSCVGGMNRRPILIIVTLETRDGQVLGRRCFEARICACPGRDRKADEDSIRKQQVSDSTKNGDGTKRPFRQNTHGIQMTSIKKRRSPDDELLYLPVRGRETYEMLLKIKESLELMQYLPQHTIETYRQQQQQQHQHLLQKQTSIQSPSSYGNSSPPLNKMNSMNKLPSVSQLINPQQRNALTPTTIPDGMGANIPMMGTHMPMAGDMNGLSPTQALPPPLSMPSTSHCTPPPPYPTDCSIVSFLARLGCSSCLDYFTTQGLTTIYLIEHYSMDDLASLKIPEQFRHAIWKGILDHRQLHEFSSPSHLLRTPSSASTVSVGSSETRGERVIDAVRFTLRQTISFPPRDEWNDFNFDMDARRNKQQRIKEEGE [Q481L] |

Variants of: B2
Conditions: with roaa_human HNRNPAB
Remark: another data set of the same source
Target sequence in this assay (Q99729 whole entry): as the sequence (Q99729 whole entry) above

| effect of a mutation on the interaction | Variant |
| --- | --- |
| disrupting interaction strength | MLYLENNAQTQFSEPQYTNLGLLNSMDQQIQNGSSSTSPYNTDHAQNSVTAPSPYAQPSSTFDALSPSPAIPSNTDYPGPHSFDVSFQQSSTAKSATWTYSTELKKLYCQIAKTCPIQIKVMTPPPQGAVIRAMPVYKKAEHVTEVVKRCPNHELSREFNEGQIAPPSHLIRVEGNSHAQYVEDPITGRQSVLVPYEPPQVGTEFTTVLYNFMCNSSCVGGMNRRPILIIVTLETRDGQVLGRRCFEARICACPGRDRKADEDSIRKQQVSDSTKNGDGTKRPFRQNTHGIQMTSIKKRRSPDDELLYLPVRGRETYEMLLKIKESLELMQYLPQHTIETYRQQQQQQHQHLLQKQTSIQSPSSYGNSSPPLNKMNSMNKLPSVSQLINPQQRNALTPTTIPDGMGANIPMMGTHMPMAGDMNGLSPTQALPPPLSMPSTSHCTPPPPYPTDCSIVSFFARLGCSSCLDYFTTQGLTTIYQIEHYSMDDLASLKIPEQFRHAIWKGILDHRQLHEFSSPSHLLRTPSSASTVSVGSSETRGERVIDAVRFTLRQTISFPPRDEWNDFNFDMDARRNKQQRIKEEGE [L459F] |

Variants of: B3
Conditions: with rack1_human RACK1, P63244

| effect of a mutation on the interaction | Variant |
| --- | --- |
| with no effect | L553F |

Variants of: B3
Conditions: with roaa_human HNRNPAB
Target sequence in this assay (Q99729 whole entry): as the sequence (Q99729 whole entry) above

| effect of a mutation on the interaction | Variant |
| --- | --- |
| disrupting interaction strength | L553F |

Variants of: B3
Conditions: with roaa_human HNRNPAB
Remark: another data set of the same source
Target sequence in this assay (Q99729 whole entry): as the sequence (Q99729 whole entry) above

| effect of a mutation on the interaction | Variant |
| --- | --- |
| disrupting interaction strength | L553F |
| disrupting interaction strength | C561V |
| disrupting interaction strength | G569V |
| disrupting interaction strength | Q575L |
| disrupting interaction strength | I576T |
